Measured values as given in patent US20090318342A1, “Compounds” (IMPERIAL INNOVATIONS LIMITED, priority 2005, published 2009).
Blank lines part the entries; values can stand above or below the molecule they belong to.

How the values were obtained:
[1] = molecular target: T1, ADAMTS-5 (Homo sapiens, UniProt Q9UNA0); assay: Aggrecanase assay with GST-IGD-FLAG substrate, ADAMTS-5; format: biochemical; conditions: for Ki: Table 3, GST-IGD-FLAG substrate, pH 7.5, 37° C., read-out: Ki(app) ADAMTS-5
T1 sequence (Q9UNA0 262-930): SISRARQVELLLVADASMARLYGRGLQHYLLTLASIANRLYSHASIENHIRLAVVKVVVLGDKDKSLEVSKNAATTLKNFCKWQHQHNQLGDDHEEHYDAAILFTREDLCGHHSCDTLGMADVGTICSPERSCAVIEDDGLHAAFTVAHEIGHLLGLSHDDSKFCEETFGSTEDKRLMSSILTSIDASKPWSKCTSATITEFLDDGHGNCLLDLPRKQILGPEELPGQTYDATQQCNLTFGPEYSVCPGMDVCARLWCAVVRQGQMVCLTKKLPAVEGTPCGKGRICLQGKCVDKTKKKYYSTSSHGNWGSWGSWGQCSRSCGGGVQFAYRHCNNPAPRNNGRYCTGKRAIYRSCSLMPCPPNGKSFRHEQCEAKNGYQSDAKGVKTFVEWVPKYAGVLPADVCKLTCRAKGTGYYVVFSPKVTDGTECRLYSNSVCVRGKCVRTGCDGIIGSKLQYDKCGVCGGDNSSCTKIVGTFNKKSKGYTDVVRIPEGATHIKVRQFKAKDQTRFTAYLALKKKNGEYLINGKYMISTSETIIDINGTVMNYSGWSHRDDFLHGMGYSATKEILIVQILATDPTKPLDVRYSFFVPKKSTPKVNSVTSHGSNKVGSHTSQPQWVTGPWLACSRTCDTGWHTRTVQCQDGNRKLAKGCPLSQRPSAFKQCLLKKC
Protocol: (§1) FIG. 8. Graphs of Ki(app) determination. The GST-IGD-FLAG substrate assay was used to determine the Ki(app) of the N-terminal reactive site mutants against ADAMTS-4 (filled squares) and ADAMTS-5 (open circles).
The substrate containing glutathione S-transferase (GST) fused with the interglobular domain (IGD) of aggrecan (Tyr^331 to Gly^457) attached with a C-terminal FLAG sequence (GST-IGD-FLAG) was prepared by cloning it into pGEX-4T1 at the EcoR1 and Xho1 cloning sites. This substrate was expressed in E. coli strain BL-21 (non-DE3) transfected with the pGEX4T1 GST-IGD-FLAG plasmid by induction with […] isopropyl-beta-D-thiogalactopyranoside (IPTG). After induction, bacteria were collected by centrifugation and resuspended in 20 ml of 50 mM Tris-HCl (pH 8.0), 150 mM NaCl, 0.02% NaN3, […] DTT, […] EDTA with proteinase inhibitor cocktail set II inhibitors (Merck, Nottingham, UK). The resuspended bacteria were then disrupted mechanically using a French Press (5×1500 Psi). After centrifugation at 24,000 g (30 min, 4° C.), the supernatant, containing the expressed GST-IGD-FLAG, was applied to a glutathione-Sepharose 4B column (Qiagen, Crawley, UK). The column was washed with 0.5 M NaCl, 50 mM Tris-HCl (pH 8.0) and eluted with 10 mM reduced glutathione, 50 mM Tris-HCl (pH 8.0). The eluted material was dialysed three times against 10 volumes of 50 mM Tris-HCl (pH 8.0), 150 mM NaCl. […] The concentration of intact substrate (52 kDa) was determined by comparison with Coomassie Brilliant Blue staining of known amounts of bovine serum albumin (GE Healthsciences, Buckinghampshire, UK). […]
(§2) Aggrecanase assays were carried out in 50 mM Tris HCl pH 7.5, 150 mM NaCl, 10 mM CaCl2, 0.02% NaN3, 0.05% Brij-35 at 37° C. […] The stained gels were then scanned using a scanning densitometer (Biorad GS-710, Hemel Hempstead, UK) and the band intensity of the product (17 kDa) quantified using the 1D Phoretix quantification software (Nonlinear Dynamics, Newcastle upon Tyne, UK). Background subtraction was done using the rolling ball method, and band intensity expressed as pixel volumes.

[2] = molecular target: T2, ADAMTS-4 (Homo sapiens, UniProt O75173); assay: Aggrecanase assay with GST-IGD-FLAG substrate, ADAMTS-4; format: biochemical; conditions: Table 3, pH 7.5, 37° C., read-out: Ki(app) ADAMTS-4
T2 sequence (O75173 213-837): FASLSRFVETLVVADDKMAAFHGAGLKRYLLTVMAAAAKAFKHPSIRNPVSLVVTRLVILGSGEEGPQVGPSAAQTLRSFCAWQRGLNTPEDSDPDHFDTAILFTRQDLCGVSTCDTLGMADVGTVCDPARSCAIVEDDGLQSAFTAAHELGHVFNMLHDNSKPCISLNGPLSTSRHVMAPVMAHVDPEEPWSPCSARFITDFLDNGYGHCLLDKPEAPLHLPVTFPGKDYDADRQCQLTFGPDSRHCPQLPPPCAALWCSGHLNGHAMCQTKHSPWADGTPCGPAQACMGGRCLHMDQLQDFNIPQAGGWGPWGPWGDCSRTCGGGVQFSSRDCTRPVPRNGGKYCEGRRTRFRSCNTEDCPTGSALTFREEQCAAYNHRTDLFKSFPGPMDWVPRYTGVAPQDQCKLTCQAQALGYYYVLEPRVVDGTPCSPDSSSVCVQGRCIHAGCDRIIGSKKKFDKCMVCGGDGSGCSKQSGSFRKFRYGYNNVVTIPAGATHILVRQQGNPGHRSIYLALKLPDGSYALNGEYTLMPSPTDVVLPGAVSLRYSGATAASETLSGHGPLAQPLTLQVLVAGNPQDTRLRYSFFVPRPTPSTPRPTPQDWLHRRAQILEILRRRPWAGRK
Protocol: as §1
The substrate containing glutathione S-transferase (GST) fused with the interglobular domain (IGD) of aggrecan (Tyr^331 to Gly^457) attached with a C-terminal FLAG sequence (GST-IGD-FLAG) was prepared by cloning it into pGEX-4T1 at the EcoR1 and Xho1 cloning sites. This substrate was expressed in E. coli strain BL-21 (non-DE3) transfected with the pGEX4T1 GST-IGD-FLAG plasmid by induction with […] isopropyl-beta-D-thiogalactopyranoside (IPTG). […] The concentration of intact substrate (52 kDa) was determined by comparison with Coomassie Brilliant Blue staining of known amounts of bovine serum albumin (GE Healthsciences, Buckinghampshire, UK). […]
as §2

Ki [1]: 1.9 ± 0.6 nM | Ki [2]: 25 ± 3 nM
B1: -1A: N-TIMP-3 mutant with the addition of an N-terminal alanine extension (-1A) (protein)
chain: ACTCSPSHPQDAFCNSDIVIRAKVVGKKLVKEGPFGTLVYTIKQMKMYRGFTKMPHVQYIHTEASESLCGLKLEVNKYQYLLTGRVYDGKMYTGLCNFVERWDQLTLSQRKGLNYRYHLGCN

Ki [1]: 0.4 ± 0.2 nM | Ki [2]: 2.4 ± 1.6 nM
B2: N-TIMP-3: N-terminal inhibitory domain of TIMP-3 (residues 1 to 121), C-terminally His-tagged, wild-type (protein)
chain: CTCSPSHPQDAFCNSDIVIRAKVVGKKLVKEGPFGTLVYTIKQMKMYRGFTKMPHVQYIHTEASESLCGLKLEVNKYQYLLTGRVYDGKMYTGLCNFVERWDQLTLSQRKGLNYRYHLGCN

Potency for ADAMTS-5 relative to ADAMTS-4 ([1]; ADAMTS-5 versus ADAMTS-4): about 45 times
B3: (-2A)N-TIMP-3: N-TIMP-3 mutant with two alanine residues on the N-terminal side of Cysteine1 of the TIMP-3 sequence (protein)
chain: AACTCSPSHPQDAFCNSDIVIRAKVVGKKLVKEGPFGTLVYTIKQMKMYRGFTKMPHVQYIHTEASESLCGLKLEVNKYQYLLTGRVYDGKMYTGLCNFVERWDQLTLSQRKGLNYRYHLGCN
